From the supplement of paper PMC10567573

B1: C10orf62 (parent)
chain: RALEEVEMKLQKNFLTQRENTIAG

Variants of: B1
Experiment: protein stability index of a GFP-peptide fusion (GPS, HEK-293T) (PSI 1-6); higher = more stable
Details: c terminus: a fixed tail appended
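Also: lentivirally expressed fusions sorted by FACS into six bins by GFP to DsRed ratio, PSI derived from sequencing read proportions per bin multiplied by bin number.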

Row | Variant | protein stability index
1 | RALEEVEMKLQKNPLTQRENTIAG | 4.66
2 | RALEEVEMKLQKNILTQRENTIAG | 3.86
3 | RALEEVEMKLQKNLLTQRENTIAG | 4.64
4 | RALEEVEMKLQKNHLTQRENTIAG | 4.47
5 | RALEEVEMKLQKNNLTQRENTIAG | 4.49
6 | RALEEVEMKLQKNKLTQRENTIAG | 4.11
7 | RALEEVEMKLQKNQLTQRENTIAG | 4.45
8 | RALEEVEMKLQKNELTQRENTIAG | 4.61
9 | RALEEVEMKLQKNCLTQRENTIAG | 4.29
10 | RALEEVEMKLQKNDLTQRENTIAG | 4.66
11 | RALEEVEMKLQKNTLTQRENTIAG | 4.11
12 | RALEEVEMKLQKNRLTQRENTIAG | 4.33
13 | RALEEVEMKLQKNALTQRENTIAG | 4.72
14 | RALEEVEMKLQKNYLTQRENTIAG | 3.69
15 | RALEEVEMKLQKNWLTQRENTIAG | 3.61
16 | RALEEVEMKLQKNMLTQRENTIAG | 3.82
17 | RALEEVEMKLQKNGLTQRENTIAG | 4.11
18 | RALEEVEMKLQKNSLTQRENTIAG | 4.37
19 | RALEEVEMKLQKNVLTQRENTIAG | 3.97
20 | RALEEVEMKLQKNFLTQREMTIAG | 3.18
21 | RALEEVEMKLQKNFLTQRECTIAG | 3.07
22 | RALEEVEMKLQKNFLTQRETTIAG | 3.7
23 | RALEEVEMKLQKNFLTQRELTIAG | 2.45
24 | RALEEVEMKLQKNFLTQREETIAG | 4.17

Row | Variant | protein stability index
25 | RALEEVEMKLQKNFLTQREWTIAG | 2.03
26 | RALEEVEMKLQKNFLTQREFTIAG | 2.52
27 | RALEEVEMKLQKNFLTQREHTIAG | 2.85
28 | RALEEVEMKLQKNFLTQRESTIAG | 3.7
29 | RALEEVEMKLQKNFLTQREATIAG | 3.24
30 | RALEEVEMKLQKNFLTQREDTIAG | 3.96
31 | RALEEVEMKLQKNFLTQREITIAG | 2.61
32 | RALEEVEMKLQKNFLTQREYTIAG | 2.64
33 | RALEEVEMKLQKNFLTQRERTIAG | 3.29
34 | RALEEVEMKLQKNFLTQREQTIAG | 3.81
35 | RALEEVEMKLQKNFLTQREGTIAG | 3.6
36 | RALEEVEMKLQKNFLTQREPTIAG | 3.73
37 | RALEEVEMKLQKNFLTQREKTIAG | 3.75
38 | RALEEVEMKLQKNFLTQREVTIAG | 3.35
39 | RALEEVEMKLQKEFLTQRENTIAG | 3.92
40 | RALEEVEMKLQKWFLTQRENTIAG | 1.36
41 | RALEEVEMKLQKGFLTQRENTIAG | 3.15
42 | RALEEVEMKLQKIFLTQRENTIAG | 1.76
43 | RALEEVEMKLQKRFLTQRENTIAG | 3.42
44 | RALEEVEMKLQKSFLTQRENTIAG | 3.52
45 | RALEEVEMKLQKHFLTQRENTIAG | 2.72
46 | RALEEVEMKLQKVFLTQRENTIAG | 3
47 | RALEEVEMKLQKLFLTQRENTIAG | 2.86
48 | RALEEVEMKLQKDFLTQRENTIAG | 3.89

Row | Variant | protein stability index
49 | RALEEVEMKLQKPFLTQRENTIAG | 3.96
50 | RALEEVEMKLQKAFLTQRENTIAG | 2.58
51 | RALEEVEMKLQKTFLTQRENTIAG | 3.31
52 | RALEEVEMKLQKCFLTQRENTIAG | 3.23
53 | RALEEVEMKLQKYFLTQRENTIAG | 2.62
54 | RALEEVEMKLQKQFLTQRENTIAG | 3.4
55 | RALEEVEMKLQKKFLTQRENTIAG | 3.3
56 | RALEEVEMKLQKMFLTQRENTIAG | 3.02
57 | RALEEVEMKLQKFFLTQRENTIAG | 2.23
58 | RALEEVEMKLQKNFETQRENTIAG | 4.3
59 | RALEEVEMKLQKNFKTQRENTIAG | 4.21
60 | RALEEVEMKLQKNFTTQRENTIAG | 3.66
61 | RALEEVEMKLQKNFITQRENTIAG | 3.71
62 | RALEEVEMKLQKNFGTQRENTIAG | 3.9
63 | RALEEVEMKLQKNFMTQRENTIAG | 3.62
64 | RALEEVEMKLQKNFYTQRENTIAG | 3.71
65 | RALEEVEMKLQKNFVTQRENTIAG | 3.77
66 | RALEEVEMKLQKNFPTQRENTIAG | 3.89
67 | RALEEVEMKLQKNFDTQRENTIAG | 4.69
68 | RALEEVEMKLQKNFWTQRENTIAG | 2.63
69 | RALEEVEMKLQKNFATQRENTIAG | 3.92
70 | RALEEVEMKLQKNFNTQRENTIAG | 3.99
71 | RALEEVEMKLQKNFHTQRENTIAG | 3.85
72 | RALEEVEMKLQKNFCTQRENTIAG | 3.44

Row | Variant | protein stability index
73 | RALEEVEMKLQKNFQTQRENTIAG | 4.84
74 | RALEEVEMKLQKNFSTQRENTIAG | 4.38
75 | RALEEVEMKLQKNFRTQRENTIAG | 3.94
76 | RALEEVEMKLQKNFLTQRYNTIAG | 1.81
77 | RALEEVEMKLQKNFLTQRHNTIAG | 3.13
78 | RALEEVEMKLQKNFLTQRANTIAG | 3.82
79 | RALEEVEMKLQKNFLTQRWNTIAG | 2.05
80 | RALEEVEMKLQKNFLTQRFNTIAG | 1.86
81 | RALEEVEMKLQKNFLTQRQNTIAG | 2.84
82 | RALEEVEMKLQKNFLTQRINTIAG | 2.04
83 | RALEEVEMKLQKNFLTQRLNTIAG | 2.04
84 | RALEEVEMKLQKNFLTQRVNTIAG | 2.3
85 | RALEEVEMKLQKNFLTQRGNTIAG | 3.31
86 | RALEEVEMKLQKNFLTQRRNTIAG | 3.12
87 | RALEEVEMKLQKNFLTQRTNTIAG | 2.92
88 | RALEEVEMKLQKNFLTQRSNTIAG | 3.37
89 | RALEEVEMKLQKNFLTQRNNTIAG | 3.2
90 | RALEEVEMKLQKNFLTQRDNTIAG | 3.78
91 | RALEEVEMKLQKNFLTQRMNTIAG | 2.65
92 | RALEEVEMKLQKNFLTQRCNTIAG | 2.33
93 | RALEEVEMKLQKNFLTQRKNTIAG | 3.53
94 | RALEEVEMKLQKNFLTQRPNTIAG | 2.85
